Data as given in the Human Domainome abundance scans (Beltran et al. 2025).
± gives the uncertainty stated by the source.

B1: POU domain, class 4, transcription factor 3, residues 185 to 256; numbered along this chain, Q15319 (parent)
chain: RELEAFAERFKQRRIKLGVTQADVGAALANLKIPGVGSLSQSTICRFESLTLSHNNMIALKPVLQAWLEEAE

Variants of: B1
Assay: abundance fitness (aPCA) (normalised: wild type 0, dead -1); higher = more abundant; growth selection in yeast, the domain comes from the species named
Settings: Homo sapiens

Abundance fitness, by site and new letter:
L39: P 0.054 ± 0.3, W -0.596 ± 0.37, R -0.606 ± 0.15, G -0.912 ± 0.23, F -0.687 ± 0.5, A -0.053 ± 0.15, D -0.304 ± 0.16, S -0.109 ± 0.23, V 0.034 ± 0.15
S49: F -0.515 ± 0.11, H -0.033 ± 0.096, D 0.067 ± 0.071, C -0.127 ± 0.12, K -0.039 ± 0.1, A 0.016 ± 0.065, E 0.102 ± 0.071, G -0.138 ± 0.057
S40: P -0.154 ± 0.064, N -0.183 ± 0.2, D 0.037 ± 0.22, Y -0.422 ± 0.079, H -0.013 ± 0.22, C -0.066 ± 0.12, A -0.222 ± 0.07, W -0.42 ± 0.23, F -0.468 ± 0.11, V -0.354 ± 0.08, R -0.175 ± 0.069, M -0.29 ± 0.12, I -0.664 ± 0.38, Q -0.287 ± 0.15, L -0.488 ± 0.082
S38: C -0.27 ± 0.21, N 0.022 ± 0.021, L -0.031 ± 0.036, R -0.052 ± 0.14, W -0.389 ± 0.22, Y -0.055 ± 0.051, V 0.065 ± 0.16, F 0.057 ± 0.095, Q 0.029 ± 0.03, A -0.346 ± 0.23, M -0.006 ± 0.03, H -0.018 ± 0.036, I -0.017 ± 0.042, P 0.055 ± 0.041, T 0.017 ± 0.03
C45: N -0.007 ± 0.094, W -0.234 ± 0.32, Q 0.003 ± 0.063, I 0.104 ± 0.069, P -0.25 ± 0.05, Y -0.01 ± 0.059, T 0.012 ± 0.064, K 0.109 ± 0.17, H 0.053 ± 0.079, M -0.048 ± 0.083, S -0.042 ± 0.053, F -0.001 ± 0.038, L -0.06 ± 0.038
F47: V -0.718 ± 0.1, C -0.982 ± 0.15, A -0.866 ± 0.14, T -0.94 ± 0.19, G -1.01 ± 0.23, N -1.09 ± 0.27, W -0.508 ± 0.066, M -0.543 ± 0.09, I -0.836 ± 0.17, P -1.02 ± 0.13, H -1.06 ± 0.33, Q -0.875 ± 0.13, S -0.747 ± 0.081
T43: F -0.425 ± 0.17, W -0.382 ± 0.14, P -0.836 ± 0.064, V -0.031 ± 0.045, K -0.153 ± 0.096, R -0.607 ± 0.11, L -0.012 ± 0.042, A -0.148 ± 0.055, C -0.333 ± 0.23, D -0.29 ± 0.24, G -0.65 ± 0.088, H -0.296 ± 0.17, N -0.746 ± 0.21, Q -0.105 ± 0.14, S -0.2 ± 0.055, E -0.235 ± 0.26, I -0.089 ± 0.41, M -0.053 ± 0.086
G35: Q -0.076 ± 0.048, F -0.231 ± 0.14, M -0.099 ± 0.087, I -0.569 ± 0.2, Y -0.26 ± 0.074, P -0.285 ± 0.06, S -0.193 ± 0.057, K -0.291 ± 0.051, H -0.038 ± 0.071, N -0.121 ± 0.052
S42: Q 0.017 ± 0.07, N 0.06 ± 0.4, K 0.046 ± 0.11, P -0.428 ± 0.07, I -0.363 ± 0.15, F -0.225 ± 0.069, T -0.116 ± 0.079, M -0.1 ± 0.099
P34: Q -0.458 ± 0.19, T -0.058 ± 0.094, K -0.433 ± 0.33, R -0.353 ± 0.12, W -0.571 ± 0.36, L -0.386 ± 0.067, S -0.124 ± 0.061, M -0.141 ± 0.093, V -0.271 ± 0.14, Y -0.379 ± 0.14
R46: Y -0.106 ± 0.18, M -0.184 ± 0.1, W -0.334 ± 0.14, T -0.661 ± 0.083, I -0.806 ± 0.16, H -0.056 ± 0.091, D 0.096 ± 0.13, F -0.519 ± 0.13, S 0.024 ± 0.06, K 0.055 ± 0.074, L -0.184 ± 0.056, P -1.17 ± 0.14, N 0.094 ± 0.081, G 0.125 ± 0.097, Q -0.011 ± 0.077, A 0.031 ± 0.061, E 0.025 ± 0.17
I44: V 0.08 ± 0.16
G37: Q 0.003 ± 0.057, M -0.153 ± 0.18, Y 0.024 ± 0.43, L -0.172 ± 0.11, R -0.063 ± 0.054, H 0.011 ± 0.26, D -0.093 ± 0.15, W -0.669 ± 0.26, K -0.018 ± 0.036, S -0.001 ± 0.082, A -0.127 ± 0.053, P -0.055 ± 0.083, V -0.039 ± 0.074, E 0.038 ± 0.057
V36: E -0.055 ± 0.2, Q -0.261 ± 0.16, P -0.398 ± 0.06, I 0.117 ± 0.097, T -0.3 ± 0.079, L -0.011 ± 0.043, F -0.043 ± 0.071, R -0.332 ± 0.052, Y -0.121 ± 0.19, A -0.089 ± 0.1, M 0.044 ± 0.1, S -0.077 ± 0.059, H -0.072 ± 0.093, N -0.234 ± 0.32, W -0.091 ± 0.11, G -0.242 ± 0.2
